Measurements reported in patent publication US12428627B2, “Mutant p-hydroxyphenylpyruvate dioxygenase, and coding nucleic acid and use thereof” (Qingdao Kingagroot Chemical Compound Co., Ltd., priority 2018, dated 2025).
Positions count from the first letter of the chain named. In names and notes the source's numbering stands.

B1: H141R: single-site mutant rice HPPD (protein, listed as Oryza sativa)
chain: MPPTPTPTATTGAVSAAAAAGENAGFRLVGHRRFVRANPRSDRFQALAFHHVELWCADAASAAGRFAFALGAPLAARSDLSTGNSAHASLLLRSASVAFLFTAPYGGDHGVGADAATTASIPSFSPGAARRFAADHGLAVRAVALRVADAADAFRASVAAGARPAFQPADLGGGFGLAEVELYGDVVLRFVSHPDGADAPFLPGFEGVSNPGAVDYGLRRFDHVVGNVPELAPVAAYISGFTGFHEFAEFTAEDVGTAESGLNSVVLANNAETVLLPLNEPVHGTKRRSQIQTYLDHHGGPGVQHIALASDDVLGTLREMRARSAMGGFEFLAPPPPNYYDGVRRRAGDVLSEEQINECQELGVLVDRDDQGVLLQIFTKPVGDRPTFFLEMIQRIGCMEKDESGQEYQKGGCGGFGKGNFSELFKSIEEYEKSLEAKQAPTVQGS
modifications: The amino acid sequence of Wild-Type rice HPPD protein (OsHPPD _WT)
B2: WT: wild-type rice p-hydroxyphenylpyruvate dioxygenase (OsHPPD), SEQ ID NO: 2 (protein, listed as Oryza sativa)
chain: B1 chain with R141H
modifications: The amino acid sequence of Wild-Type rice HPPD protein (OsHPPD _WT)

Experiments:
[1] = tested on: rice HPPD (OsHPPD); assay: Color reaction of recombinant E. coli expressing wild-type or mutant rice HPPD, cultured in 96-well plate in medium containing an HPPD-inhibiting herbicide and tyrosine; format: cell-based, Oryza sativa; set-up: key to relative resistance to Tembotrione / relative resistance to Benzuofucaotong metabolic product / relative resistance to Huanbifucaotong / relative resistance to Topramezone / relative resistance to Mesotrione / resistance to Tembotrione / resistance to Benzucfucaotong metabolic product / resistance to Huanbifucaotong / resistance to Topramezone / resistance to Mesotrione: The more the plus sign “+”, the deeper the color and the higher the resistance/tolerance as compared to the wild type
From the text: The rice full-length OsHPPD enzyme has 446 amino acids and its amino acid sequence is set forth in SEQ ID NO: 2, wherein the amino acids 1-50 are considered to constitute a signal peptide which is responsible for directing into chloroplast (Siehl et al. Plant Physiol. 2014 November; 166(3): 1162-1176). Therefore, from the amino acid at the 51-position to the amino acid at the […], a saturated random mutation was made for each amino acid. This was achieved by performing a bridge PCR by using a primer containing a coding sequence of an amino acid to be mutated into NNK and another suitable conventional primer. In NNK, N represented A/T/G/C and K represented G/T, and the NNK codon could encode any one of 20 amino acids or terminators. Accordingly, this was a saturated mutation. Please see: Kille S. Acevedo-Rocha C G, Parra L P, Zhang Z G, Opperman D J, Reetz M T, Acevedo J P (2013) Reducing codon redundancy and screening effort of combinatorial protein libraries created by saturation mutagenesis. ACS Synth Biol 2(2):83-92; Directed Evolution Library Creation: methods and protocols 2nd ed. Edited by Elizabeth M. J. Gillam, Janine N. Copp and David F. Ackerley New York, NY United States: Springer, 2014. doi:10.1007/978-1-4939-1053-3. A large number of mutants would be produced. The mutant was cloned into a linearized pET-44a vector and transformed into E. co/i, which was cultivated by using a 96-well plate in a 2×YT culture solution containing an HPPD-inhibiting herbicide (such as 1-2 μM tembotrione) and a substrate tyrosine (1 g/L) in a shaker at 28° C. and 150 rpm for 24 hours for expression, and then the mutants were rapidly screened out according to their color browning. By using the method, 10 single amino acid mutants, A103S, H141R, H141 K, H141T, A165V, V191I, R220K, G342D, D370N and K410I, were screened out. The color reaction of these resistant mutants in the presence of tembotrione and the metabolic product of benzuofucaotong relative to that of the wild type was as shown in FIG. 1.
Similarly, the color reaction of these mutants in the presence of the other three HPPD-inhibiting herbicides huanbifucaotong, topramezone and mesotrione were determined, see FIGS. 2 and 3. The resistance/tolerance of each of the mutants to the five herbicides was roughly estimated on the basis of color changes thereof and the results were shown in Table 1. The more the plus sign “+”, the deeper the color and the higher the resistance/tolerance as compared to the wild type.
HPPD-inhibiting herbicides inhibited HPPD enzymatic activity. When tyrosine was converted to 4-hydroxyphenylpyruvate (HPP) under the action of tyrosine transaminase, the inactivated HPPD was unable to oxidize 4-hydroxyphenylpyruvate into homogentisic acid (HGA). HGA was dark brown. Therefore, if an HPPD mutant was resistant to or tolerant to an herbicide, after expressed in E. coli, the mutant could also oxidize 4-hydroxyphenylpyruvate into homogentisic acid, whereby dark brown appeared. Therefore, E. coli was cultured in a 2×YT culture medium containing a HPPD-inhibiting herbicide and a substrate tyrosine using a 96-well plate to express HPPD, and these mutants were rapidly screened according to their color changes. • (1) Preparation of 2×YT culture medium (1 g/L L-Tyr, 0.1 mM IPTG, 0.01 mM MnCl2 and 100 mg/L ampicillin were added). • (2) 0.1 mL of the above medium was added to each well of a 96-well plate, and the expression clones of OsHPPD wild type or mutant (OsHPPD Mut) from the E. coli plate obtained by the above transformation were subjected to liquid culture in the 96-well plate. HPPD inhibitors having a final concentration of 1 μM-20 μM were added according to different selected agents, for example, the final concentration of tembotrione was 1.7 μM while mesotrione was 10 μM. […]

[2] = tested on: Huaidao No. 5 rice seedlings; assay: Gene-edited rice seedlings (base editing / homologous replacement of HPPD gene) on medium containing tembotrione; format: in vivo; settings: medium containing 0.4 μM tembotrione
Protocol: The calli of Huaidao No. 5 (at least 3000 callis) were infected according to the aforesaid method for infecting rice callis with Agrobacterium. After being infected with Agrobacterium, the infected calli were transferred to a 50 mg/L hyg screening medium for screening culture. After three rounds (15 days×3) of screening, the blond calli with good growth state were picked out to differentiate in a differentiation medium, and 0.2 μM tembotrione was added during the differentiation process for screening. After for 3-4 weeks, about 1,500 seedlings with around 1 cm were obtained. As to the about 1,500 differentiated seedlings, the vast majority of which had been bleached, and only 4 seedlings remained normal green. The 4 seedlings were transplanted to a rooting medium containing 0.4 μM tembotrione and cultivated for 2 weeks, wherein two seedlings had been bleached, while the other two seedlings remained green (FIG. 14A). A small number of leaves were used to extract genomic DNA by CTAB method. PCR was carried out by using the primers oshppd54F: TTCCACCACGTCGAGCTC and Oshppd356R: […]. The amplified product was detected by 1% agarose electrophoresis and sequenced by Sanger sequencing method. […]

[3] = tested on: OsHPPD; assay: HPPD enzyme activity assay: Km, Kcat and Kcat/Km of OsHPPDs; format: biochemical, Oryza sativa; settings: substrate 4-HPP
Protocol: The rice OsHPPD protein and homogentisate 1,2-dioxygenase (HGD) were obtained by heterologously expressed in E. coli wherein the gene was inserted into the pET 15b expression vector and expressed in the BL21 (DE3) expression strain, and purified by the Ni-NTA resin. • (1) The HPPD open reading frame (ORF) of the positive clone was cloned into the pET-15b vector to form a 6His-HPPD expression vector, and transformed into the BL21 (DE3) cell. The expression strain was inoculated in 10 mL of 2×YT culture medium, and cultivated overnight on a shaker at 37° C. and 200 rpm. The 10 mL of the culture was inoculated in 1 L of 2×YT culture medium and cultivated until the OD600 reached 0.6-0.8, cooled to a temperature of 16° C., and subjected to induced-expression with 0.2 mM IPTG (isopropyl thiogalactoside) overnight. The strains were collected by centrifugation at 2800×g. • (2) The collected strains were re-suspended with the buffer A (50 mM Tris pH 8.0, 500 mM NaCl, 20 mM imidazole), to which PMSF (phenylmethanesulfonyl fluoride) at the final concentration of 1 mM and 250 μL of a protease inhibitor cocktail (i.e., a mixture of multiple protease inhibitors), and mixed. The cells were broken by ultrasound in ice-bath (40% total power, work for 3 seconds/6 seconds interval, 2×30 minutes (Ningbo Scientz Biotechnology Co., Ltd., Ningbo, China)), and centrifuged at 12000 rpm at 4° C. for 30 minutes; and the supernatant was filtered with a 0.22 μm filter membrane. • (3) Purification with the Ni-NTA column: the supernatant was in contact with the Ni-NTA resin, then rinsed with a buffer A containing 50 mM imidazole to remove the impurities, and finally, eluted with an elution buffer containing 400 mM imidazole. • (4) The approximate purity of the protein of interest was analyzed by SDS-PAGE. The eluates containing of the protein of interest were combined and concentrated by an ultrafiltration device (10 kDa molecular weight cut-off, Amicon Ultra). The solution was replaced with a solution containing 20 mM Tris-HCl and having a pH of 7.5 for at least 3 times to desalt. The total protein concentration was determined by the BCA method.
(§1) • 1. The activity of a HPPD enzyme was determined by detecting the conversion of 4-hydroxyphenylpyruvate (4-HPP) to homogentisic acid (HGA) catalyzed by the HPPD enzyme and the conversion of HGA to maleylacetoacetate (MAA) catalyzed by homogentisate dioxygenase. […] 6 μl of 4-hydroxyphenylpyruvate (4-HPP) having a concentration that was as 50 times as the final concentration of the substrate were added to an ELSA plate, and then 294 μL of hydroxyethylpiperazine ethanesulfonic acid (HEPES) with a final concentration of 25 mM and pH of 7, 2 mM of Vitamin C, 10 mM FeSO4, 50 nM homogentisate dioxygenase and 5 to 240 nM HPPD enzyme were added thereto at one time. The final concentration of reaction substrate 4-HPP usually ranged from 1 to 100 μM. • 3. The absorbance changes of the reaction wells at 318 nm were continuously monitored by a UV ELISA detector (ReadMax 1900 photoabsorption type full-wavelength microplate reader) (Shanghai). • 4. Determination of Km, Kcat and Kcat/Km of OsHPPDs
Vmax is the maximum catalytic reaction rate achievable by enzymatic catalysis. The Michaelis constant Km is the concentration of a substrate required when the enzyme catalyzed the reaction to achieve half of the maximum rate (Vmax). The Km value is a constant and independent of the enzyme concentration, and altered as substrate type, reaction temperature, pH, and ionic strength changed. […] is a catalytic constant of an enzyme and referred to the number of substrate molecules that could be catalyzed by an enzyme molecule or enzyme active center per second. KCat/Km represents the catalytic efficiency of enzyme. It could be seen from the data in the table that the catalytic efficiency of most HPPD mutants was enhanced.

[4] = tested on: OsHPPD proteins; assay: Inhibitory activity (IC50) of the herbicide 101 and huanbifucaotong against OsHPPD proteins; format: biochemical, Oryza sativa; settings: FIG. 10 inhibition curve
Sequence of OsHPPD proteins (as listed by the source): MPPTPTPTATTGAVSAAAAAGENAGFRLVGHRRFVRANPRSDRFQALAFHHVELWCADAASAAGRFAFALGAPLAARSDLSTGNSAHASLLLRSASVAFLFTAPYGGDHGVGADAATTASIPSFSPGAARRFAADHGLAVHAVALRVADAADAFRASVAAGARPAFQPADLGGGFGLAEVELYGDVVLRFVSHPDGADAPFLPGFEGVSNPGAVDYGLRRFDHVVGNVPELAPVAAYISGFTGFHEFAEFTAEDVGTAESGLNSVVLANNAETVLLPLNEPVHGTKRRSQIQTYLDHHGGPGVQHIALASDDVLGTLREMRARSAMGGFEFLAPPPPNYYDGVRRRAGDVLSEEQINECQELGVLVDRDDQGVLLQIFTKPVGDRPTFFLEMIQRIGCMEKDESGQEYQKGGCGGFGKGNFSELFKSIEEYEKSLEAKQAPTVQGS
Protocol: as §1
• 5. Determination of inhibitory activity (IC50) of the herbicide 101 and huanbifucaotong against OsHPPD proteins
Due to the unique properties of each of 101 and huangbifucaotong, the degree of the increased IC50 value is not completely consistent for the two HPPD herbicides.

[5] = Table 1, single-site mutants, estimated from color change, wild type = +
[6] = Table 3, single-site and multi-site mutants, different time and plates, estimated from color shades

Row | Molecule | color change compared with wild type ([1]; tembotrione and metabolic product of benzuofucaotong, FIG. 1) | state of successfully edited seedlings [2] | relative resistance to Benzuofucaotong metabolic product [1, 5] | relative resistance to Huanbifucaotong [1, 5] | relative resistance to Mesotrione [1, 5] | relative resistance to Tembotrione [1, 5] | relative resistance to Topramezone [1, 5] | resistance to Benzucfucaotong metabolic product [1, 6] | resistance to Huanbifucaotong [1, 6] | resistance to Mesotrione [1, 6] | resistance to Tembotrione [1, 6] | resistance to Topramezone [1, 6] | Km [3] [µM] | concentration of compound 101 at which activity is completely inhibited [4]
1 | B1 | obviously deeper than that of the wild type | remain green |  |  |  |  |  |  |  |  |  |  |  | 
2 | B2 |  |  | + | + | + | + | + | + | + | + | + | + | 6.7 | about 60 μM
